Assay results: article PMC9958131 (Nature Communications, 2023)

B1: Q9Y2J8 (protein)
chain: MLRERTVRLQYGSRVEAVYVLGTYLWTDVYSAAPAGAQTFSLKHSEHVWVEVVRDGEAEEVATNGKQRWLLSPSTTLRVTMSQASTEASSDKVTVNYYDEEGSIPIDQAGLFLTAIEISLDVDADRDGVVEKNNPKKASWTWGPEGQGAILLVNCDRETPWLPKEDCRDEKVYSKEDLKDMSQMILRTKGPDRLPAGYEIVLYISMSDSDKVGVFYVENPFFGQRYIHILGRRKLYHVVKYTGGSAELLFFVEGLCFPDEGFSGLVSIHVSLLEYMAQDIPLTPIFTDTVIFRIAPWIMTPNILPPVSVFVCCMKDNYLFLKEVKNLVEKTNCELKVCFQYLNRGDRWIQDEIEFGYIEAPHKGFPVVLDSPRDGNLKDFPVKELLGPDFGYVTREPLFESVTSLDSFGNLEVSPPVTVNGKTYPLGRILIGSSFPLSGGRRMTKVVRDFLKAQQVQAPVELYSDWLTVGHVDEFMSFVPIPGTKKFLLLMASTSACYKL
B2: P13647 (protein, UniProt P13647 1-590, looked up)
chain: MSRQSSVSFRSGGSRSFSTASAITPSVSRTSFTSVSRSGGGGGGGFGRVSLAGACGVGGYGSRSLYNLGGSKRISISTSGGSFRNRFGAGAGGGYGFGGGAGSGFGFGGGAGGGFGLGGGAGFGGGFGGPGFPVCPPGGIQEVTVNQSLLTPLNLQIDPSIQRVRTEEREQIKTLNNKFASFIDKVRFLEQQNKVLDTKWTLLQEQGTKTVRQNLEPLFEQYINNLRRQLDSIVGERGRLDSELRNMQDLVEDFKNKYEDEINKRTTAENEFVMLKKDVDAAYMNKVELEAKVDALMDEINFMKMFFDAELSQMQTHVSDTSVVLSMDNNRNLDLDSIIAEVKAQYEEIANRSRTEAESWYQTKYEELQQTAGRHGDDLRNTKHEISEMNRMIQRLRAEIDNVKKQCANLQNAIADAEQRGELALKDARNKLAELEEALQKAKQDMARLLREYQELMNTKLALDVEIATYRKLLEGEECRLSGEGVGPVNISVVTSSVSSGYGSGSGYGGGLGGGLGGGLGGGLAGGSSGSYYSSSSGGVGLGGGLSVGGSGFSASSGRGLGVGFGSGGGSSSSVKFVSTTSSSRKSFKS
modifications: full-length
B3: P01023 (protein)
chain: MGKNKLLHPSLVLLLLVLLPTDASVSGKPQYMVLVPSLLHTETTEKGCVLLSYLNETVTVSASLESVRGNRSLFTDLEAENDVLHCVAFAVPKSSSNEEVMFLTVQVKGPTQEFKKRTTVMVKNEDSLVFVQTDKSIYKPGQTVKFRVVSMDENFHPLNELIPLVYIQDPKGNRIAQWQSFQLEGGLKQFSFPLSSEPFQGSYKVVVQKKSGGRTEHPFTVEEFVLPKFEVQVTVPKIITILEEEMNVSVCGLYTYGKPVPGHVTVSICRKYSDASDCHGEDSQAFCEKFSGQLNSHGCFYQQVKTKVFQLKRKEYEMKLHTEAQIQEEGTVVELTGRQSSEITRTITKLSFVKVDSHFRQGIPFFGQVRLVDGKGVPIPNKVIFIRGNEANYYSNATTDEHGLVQFSINTTNVMGTSLTVRVNYKDRSPCYGYQWVSEEHEEAHHTAYLVFSPSKSFVHLEPMSHELPCGHTQTVQAHYILNGGTLLGLKKLSFYYLIM
B4: K7ERE3 (protein)
chain: MSLRLQSSSASYGGGFGGGSCQLGGGRGVSTCSTRFVSGGSAGGYGGGVSCGFGGGAGSGFGGGYGGGLGGGYGGGLGGGFGGGFAGGFVDFGACDGGLLTGNEKITMQNLNDRLASYLEKVRALEEANADLEVKIRDWHLKQSPASPERDYSPYYKTIEELRDKILTATIENNRVILEIDNARLAADDFRLKYENELALRQSVEADINGLRRVLDELTLSKTDLEMQIESLNEELAYMKKNHEEEMKEFSNQVVGQVNVEMDATPGIDLTRVLAEMREQYEAMAERNRRDAEEWFHTKSAELNKEVSTNTAMIQTSKTEITELRRTLQGLEIELQSQLSMKAGLENTVAETECRYALQLQQIQGLISSIEAQLSELRSEMECQNQEYKMLLDIKTRLEQEIATYRSLLEGQDAK
B5: P02533 (protein)
chain: MTTCSRQFTSSSSMKGSCGIGGGIGGGSSRISSVLAGGSCRAPSTYGGGLSVSSSRFSSGGACGLGGGYGGGFSSSSSSFGSGFGGGYGGGLGAGLGGGFGGGFAGGDGLLVGSEKVTMQNLNDRLASYLDKVRALEEANADLEVKIRDWYQRQRPAEIKDYSPYFKTIEDLRNKILTATVDNANVLLQIDNARLAADDFRTKYETELNLRMSVEADINGLRRVLDELTLARADLEMQIESLKEELAYLKKNHEEEMNALRGQVGGDVNVEMDAAPGVDLSRILNEMRDQYEKMAEKNRKDAEEWFFTKTEELNREVATNSELVQSGKSEISELRRTMQNLEIELQSQLSMKASLENSLEETKGRYCMQLAQIQEMIGSVEEQLAQLRCEMEQQNQEYKILLDVKTRLEQEIATYRRLLEGEDAHLSSSQFSSGSQSSRDVTSSSRQIRTKVMDVHDGKVVSTHEQVLRTKN
B6: F5GXS0 (protein)
chain: MRLLWGLIWASSFFTLSLQKPRLLLFSPSVVHLGVPLSVGVQLQDVPRGQVVKGSVFLRNPSRNNVPCSPKVDFTLSSERDFALLSLQVPLKDAKSCGLHQLLRGPEVQLVAHSPWLKDSLSRTTNIQGINLLFSSRRGHLFLQTDQPIYNPGQRVRYRVFALDQKMRPSTDTITVMVENSHGLRVRKKEVYMPSSIFQDDFVIPDISEPGTWKISARFSDGLESNSSTQFEVKKYVLPNFEVKITPGKPYILTVPGHLDEMQLDIQARYIYGKPVQGVAYVRFGLLDEDGKKTFFRGLESQTKLVNGQSHISLSKAEFQDALEKLNMGITDLQGLRLYVAAAIIESPGGEMEEAELTSWYFVSSPFSLDLSKTKRHLVPGAPFLLQALVREMSGSPASGIPVKVSATVSSPGSVPEVQDIQQNTDGSGQVSIPIIIPQTISELQLSVSAGSPHPAIARLTVAAPPSGGPGFLSIERPDSRPPRVGDTLNLNLRAVGSGA
B7: A0A140TA32 (protein)
chain: MRLLWGLIWASSFFTLSLQKPRLLLFSPSVVHLGVPLSVGVQLQDVPRGQVVKGSVFLRNPSRNNVPCSPKVDFTLSSERDFALLSLQVPLKDAKSCGLHQLLRGPEVQLVAHSPWLKDSLSRTTNIQGINLLFSSRRGHLFLQTDQPIYNPGQRVRYRVFALDQKMRPSTDTITVMVENSHGLRVRKKEVYMPSSIFQDDFVIPDISEPGTWKISARFSDGLESNSSTQFEVKKYVLPNFEVKITPGKPYILTVPGHLDEMQLDIQARYIYGKPVQGVAYVRFGLLDEDGKKTFFRGLESQTKLVNGQSHISLSKAEFQDALEKLNMGITDLQGLRLYVAAAIIEYPGGEMEEAELTSWYFVSSPFSLDLSKTKRHLVPGAPFLLQALVREMSGSPASGIPVKVSATVSSPGSVPEVQDIQQNTDGSGQVSIPIIIPQTISELQLSVSAGSPHPAIARLTVAAPPSGGPGFLSIERPDSRPPRVGDTLNLNLRAVGSGA
B8: C9JU00 (protein)
chain: MIDAATLKSRKMLEEIMKYEASILTHDSSIRYLQEIYNSNNQKIVNLKEKVAQLEAQCQEPCKDTVQIHDITGKDCQDIANKGAKQSGLYFIKPLKANQQFLVYCEIDGSGNGWTVFQKRLDG
B9: P02538 (protein)
chain: MASTSTTIRSHSSSRRGFSANSARLPGVSRSGFSSVSVSRSRGSGGLGGACGGAGFGSRSLYGLGGSKRISIGGGSCAISGGYGSRAGGSYGFGGAGSGFGFGGGAGIGFGLGGGAGLAGGFGGPGFPVCPPGGIQEVTVNQSLLTPLNLQIDPTIQRVRAEEREQIKTLNNKFASFIDKVRFLEQQNKVLETKWTLLQEQGTKTVRQNLEPLFEQYINNLRRQLDSIVGERGRLDSELRGMQDLVEDFKNKYEDEINKRTAAENEFVTLKKDVDAAYMNKVELQAKADTLTDEINFLRALYDAELSQMQTHISDTSVVLSMDNNRNLDLDSIIAEVKAQYEEIAQRSRAEAESWYQTKYEELQVTAGRHGDDLRNTKQEIAEINRMIQRLRSEIDHVKKQCANLQAAIADAEQRGEMALKDAKNKLEGLEDALQKAKQDLARLLKEYQELMNVKLALDVEIATYRKLLEGEECRLNGEGVGQVNISVVQSTVSSGYGGA
B10: E7ESP9 (protein)
chain: MSYTLDSLGNPSAYRRVTETRSSFSRVSGSPSSGFRSQSWSRGSPSTVSSSYKRSMLAPRLAYSSAMLSSAESSLDFSQSSSLLNGGSGPGGDYKLSRSNEKEQLQGLNDRFAGYIEKVHYLEQQNKEIEAEIQALRQKQASHAQLGDAYDQEIRELRATLEMVNHEKAQVQLDSDHLEEDIHRLKERFEEEARLRDDTEAAIRALRKDIEEASLVKVELDKKVQSLQDEVAFLRSNHEEEVADLLAQIQASHITVERKDYLKTDISTALKEIRSQLESHSDQNMHQAEEWFKCRYAKLTEAAEQNKEAIRSAKEEIAEYRRQLQSKSIELESVRGTKESLERQLSDIEERHNHDLSSYQDTIQQLENELRGTKWEMARHLREYQDLLNVKMALDIEIAAYRKLLEGEETRFSTFAGSITGPLYTHRPPITISSKIQKPKVEAPKLKVQHKFVEEIIEETKVEDEKSEMEEALTAITEELAVSMKEEKKEAAEEKEEEPE
B11: P00488 (protein)
chain: MSETSRTAFGGRRAVPPNNSNAAEDDLPTVELQGVVPRGVNLQEFLNVTSVHLFKERWDTNKVDHHTDKYENNKLIVRRGQSFYVQIDFSRPYDPRRDLFRVEYVIGRYPQENKGTYIPVPIVSELQSGKWGAKIVMREDRSVRLSIQSSPKCIVGKFRMYVAVWTPYGVLRTSRNPETDTYILFNPWCEDDAVYLDNEKEREEYVLNDIGVIFYGEVNDIKTRSWSYGQFEDGILDTCLYVMDRAQMDLSGRGNPIKVSRVGSAMVNAKDDEGVLVGSWDNIYAYGVPPSAWTGSVDILLEYRSSENPVRYGQCWVFAGVFNTFLRCLGIPARIVTNYFSAHDNDANLQMDIFLEEDGNVNSKLTKDSVWNYHCWNEAWMTRPDLPVGFGGWQAVDSTPQENSDGMYRCGPASVQAIKHGHVCFQFDAPFVFAEVNSDLIYITAKKDGTHVVENVDATHIGKLIVTKQIGGDGMMDITDTYKFQEGQEEERLALETALM

Each molecule was assayed on PAD2 and PAD4 (assay: Citrullination site mapping of fibrinogen and vimentin by trypsin digestion and mass spectrometry (protein-level sheet, one search over native, PAD2-cit and PAD4-cit samples)). Conditions: modified residues found per protein; Deamidated [R..] = deamidated (citrullinated) arginine positions; trypsin digest, Sequest HT; not split by sample (native, PAD2-citrullinated, PAD4-citrullinated fibrinogen and vimentin).
Format: biochemical, human
Excerpt: Description: Raw mass spectrometry data for proteolytic mapping of fibrinogen, vimentin, and hnRNP A2/B1 by cathepsins B, S, and H (sheets 1-6); citrullination site mapping of fibrinogen and vimentin by trypsin digestion (sheets 7-8); and the natural antigen processing assay with native, PAD2-citrullinated (PAD2-cit), and PAD4-citrullinated (PAD4-cit) fibrinogen (sheets 9-11).

Molecule	Modifications
B1	Deamidated [R5; R8; R54; R68; R78; R157; R187; R193; R225; R232; R344; R347; R373; R428; R441; R442; R546; R552; R580; R582; R652; R653]
B2	Deamidated [R37; R73; R187; R227]
B3	Deamidated [R645; R704; R715; R719; R1401; R1407]
B4	Deamidated [R27; R212]
B5	Deamidated [R125; R194; R282; R336; R439]; Met-loss+Acetyl [N-Term]
B6	Deamidated [R123; R1126]
B7	Deamidated [R123]
B8	Deamidated [R31]
B9	Deamidated [R182; R222; R326]
B10	Deamidated [R382]
B11	Deamidated [R6; R202; R675; R697]; Met-loss+Acetyl [N-Term]
